The results in this text go back to publication PMC10941548, “Tau induces inflammasome activation and microgliosis through acetylating NLRP3” (Clinical and Translational Medicine, 2024).

In experiment [1] the target is T1, purified human WT full-length Tau protein (Tau441), His-tagged (human, UniProt P10636-8 1-441).
T1 construct: also called purified Tau441 protein; recombinant Tau441; source: E. coli ROSETTA 2(DE3)PLYSS, purified (Ni-NTA) by HUABIO
Put plainly: co-IP; competition: TNB peptide (0, 25, 50, 100, 200 µM) and purified Tau441 added to LPS-pretreated BV-2 cells; loss of Tau in the anti-NLRP3 immunoprecipitate. Conditions: both partners purified.

Experiment [2] addresses T1, purified human WT full-length Tau …. The experiment in a line: pull-down; Flag-NLRP3 (WT or mutant) immunoprecipitated from HEK-293T with anti-Flag on protein A/G agarose beads; incubated with 50 nM purified Tau441 and 1 mM acetyl CoA at 37°C for 2 h in 50 mM HEPES pH 8.0, 10 mM sodium butyrate, 1 mM DTT, 10% glycerol; blot with anti-Tau5 and anti-NLRP3. Conditions: both partners purified.

T1 sequence (P10636 other isoform, or with tags, fused parts or gaps): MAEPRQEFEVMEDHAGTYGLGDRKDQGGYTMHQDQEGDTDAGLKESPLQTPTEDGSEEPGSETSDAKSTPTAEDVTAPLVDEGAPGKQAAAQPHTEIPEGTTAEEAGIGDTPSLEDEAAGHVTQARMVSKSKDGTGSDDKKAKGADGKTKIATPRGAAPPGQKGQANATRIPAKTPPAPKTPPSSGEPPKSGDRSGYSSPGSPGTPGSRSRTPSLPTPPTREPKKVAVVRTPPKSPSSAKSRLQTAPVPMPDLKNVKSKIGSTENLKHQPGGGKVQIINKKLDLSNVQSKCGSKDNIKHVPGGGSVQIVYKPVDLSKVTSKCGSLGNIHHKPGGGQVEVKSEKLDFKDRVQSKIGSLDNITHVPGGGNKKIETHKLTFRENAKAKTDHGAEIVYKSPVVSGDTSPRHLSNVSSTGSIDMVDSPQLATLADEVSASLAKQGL

B1: Tau–NLRP3-binding blocking (TNB) peptide (peptide)
peptide: LEDLEDVDLKKFKMHLEDYPP
notes: stretch of NLRP3 around K21/K22/K24 in the PYD domain; 2574.89 Da; An FITC-labelled form (FITC-TNB) was used only for microscopy; also called peptide TNB; source: synthetic peptide (Bioyeargene Biosciences, Fmoc solid-phase, purity 95.93%)
Take B1: in experiment [1], the binding result is “binds”.

B2: Flag-mouse NLRP3 (GV362-EGFP-FLAG-mouse NLRP3), wild type (natural protein, UniProt Q8R4B8 1-1033, looked up)
chain: MTSVRCKLAQYLEDLEDVDLKKFKMHLEDYPPEKGCIPVPRGQMEKADHLDLATLMIDFNGEEKAWAMAVWIFAAINRRDLWEKAKKDQPEWNDTCTSHSSMVCQEDSLEEEWMGLLGYLSRISICKKKKDYCKMYRRHVRSRFYSIKDRNARLGESVDLNSRYTQLQLVKEHPSKQEREHELLTIGRTKMRDSPMSSLKLELLFEPEDGHSEPVHTVVFQGAAGIGKTILARKIMLDWALGKLFKDKFDYLFFIHCREVSLRTPRSLADLIVSCWPDPNPPVCKILRKPSRILFLMDGFDELQGAFDEHIGEVCTDWQKAVRGDILLSSLIRKKLLPKASLLITTRPVALEKLQHLLDHPRHVEILGFSEAKRKEYFFKYFSNELQAREAFRLIQENEVLFTMCFIPLVCWIVCTGLKQQMETGKSLAQTSKTTTAVYVFFLSSLLQSRGGIEEHLFSDYLQGLCSLAADGIWNQKILFEECDLRKHGLQKTDVSAFLRMNVFQKEVDCERFYSFSHMTFQEFFAAMYYLLEEEAEGETVRKGPGGCSDLLNRDVKVLLENYGKFEKGYLIFVVRFLFGLVNQERTSYLEKKLSCKISQQVRLELLKWIEVKAKAKKLQWQPSQLELFYCLYEMQEEDFVQSAMDHFPKIEINLSTRMDHVVSSFCIKNCHRVKTLSLGFFHNSPKEEEEERRGGRPLDQVQCVFPDTHVACSSRLVNCCLTSSFCRGLFSSLSTNRSLTELDLSDNTLGDPGMRVLCEALQHPGCNIQRLWLGRCGLSHQCCFDISSVLSSSQKLVELDLSDNALGDFGIRLLCVGLKHLLCNLQKLWLVSCCLTSACCQDLALVLSSNHSLTRLYIGENALGDSGVQVLCEKMKDPQCNLQKLGLVNSGLTSICCSALTSVLKTNQNFTHLYLRSNALGDTGLRLLCEGLLHPDCKLQMLELDNCSLTSHSCWNLSTILTHNHSLRKLNLGNNDLGDLCVVTLCEVLKQQGCLLQSLQLGEMYLNRETKRALEALQEEKPELTIVFEISW
notes: NOD-like receptor pyrin domain containing 3 (NLRP3), mouse, fusion with Flag; Plasmid from Genechem; also called GV362-EGFP-Flag-NLRP3; NLRP3-protein A/G agarose beads complexes; source: HEK-293T, transfected 48 h, immunoprecipitated with anti-Flag antibody on protein A/G agarose beads
As for B2, the binding result in experiment [2] is recorded as “binds”.
